We go through 6 sequences from the supplement of paper PMC5998384.

Series [1] has as its system HeLa Kyoto. Put plainly: solubility change mitosis vs G1/S (difference of NP-40 vs SDS log2 ratios) (log2 ratio difference); higher = more soluble in mitosis.
Series [2] concerns HeLa Kyoto. Put plainly: melting temperature (median over replicates), in situ; higher = more thermally stable.
Series [3] relates to HeLa Kyoto. Put plainly: solubility in G1/S (NP-40 vs SDS abundance) (log2 ratio); higher = more soluble. Particulars: cell cycle stage: G1/S.
In series [4] the test system is HeLa Kyoto. Put plainly: thermal stability score vs G1/S (z-score of summed log2 fold changes over temperatures); higher = more thermally stable than in G1/S.
[5] abbreviates: cell cycle stage: early G1 (4.5 h after nocodazole release).
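For melting temperature (median over replicates), in situ in this document: HeLa Kyoto cells synchronized by double thymidine or nocodazole block, proteins quantified by TMT10plex mass spectrometry, three independent biological replicates.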
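For solubility change mitosis vs G1/S (difference of NP-40 vs SDS log2 ratios) in this document: synchronized HeLa Kyoto cells (double thymidine block for G1/S, nocodazole release for mitosis), protein amounts in NP-40 versus SDS lysates quantified by mass spectrometry, three biological replicates.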
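For solubility in G1/S (NP-40 vs SDS abundance) in this document: HeLa Kyoto cells arrested at G1/S by double thymidine block, proteins quantified by TMT10plex mass spectrometry in mild NP-40 versus SDS extracts, three biological replicates.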
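For thermal stability score vs G1/S (z-score of summed log2 fold changes over temperatures) in this document: synchronized HeLa Kyoto cells, proteins quantified by TMT10plex mass spectrometry, three biological replicates, mitosis taken 0.5 h after nocodazole release, G1/S directly after double thymidine block.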

Take “MSDTSESGAGLTRFQAEASEKDSSSMMQTLLTVTQNVEVPETPKASKALEVSEDVKVSKASGVSKATEVSKTPEAREAPATQASSTTQLTDTQVLAAENKSLAADTKKQNADPQAVTMPATETKKVSHVADTKVNTKAQETEAAPSQAPADEPEPESAAAQSQENQDTRPKVKAKKARKVKHLDGEEDGSSDQSQASGTTGGRRVSKALMASMARRASRGPIAFWARRASRTRLAAWARRALLSLRSPKARRGKARRRAAKLQSSQEPEAPPPRDVALLQGRANDLVKYLLAKDQTKIPIKRSDMLKDIIKEYTDVYPEIIERAGYSLEKVFGIQLKEIDKNDHLYILLSTLEPTDAGILGTTKDSPKLGLLMVLLSIIFMNGNRSSEAVIWEVLRKLGLRPGIHHSLFGDVKKLITDEFVKQKYLDYARVPNSNPPEYEFFWGLRSYYETSKMKVLKFACKVQKKDPKEWAAQYREAMEADLKAAAEAAAEAKARAEIRARMGIGLGSENAAGPCNWDEADIGPWAKARIQAGAEAKAKAQESGSASTGASTSTNNSASASASTSGGFSAGASLTATLTFGLFAGLGGAGASTSGSSGACGFSYK [MAGED2]”: in series [1], the “solubility change mitosis (log2)” value is -0.157. The melting temperature in series [2] (cell cycle stage: G1/S) is 46.9 °C; in series [2] (cell cycle stage: mitosis) it was 48.4 °C. In addition, the “solubility in G1/S (log2)” value in series [3] came to 0.259. For the same sequence, the thermal stability score worked out at 2.46 in series [4] (setting [5]) and 4.54 in series [4] (cell cycle stage: mitosis).

On to “MSDYSTGGPPPGPPPPAGGGGGAGGAGGGPPPGPPGAGDRGGGGPGGGGPGGGSAGGPSQPPGGGGPGIRKDAFADAVQRARQIAAKIGGDAATTVNNSTPDFGFGGQKRQLEDGDQPESKKLASQGDSISSQLGPIHPPPRTSMTEEYRVPDGMVGLIIGRGGEQINKIQQDSGCKVQISPDSGGLPERSVSLTGAPESVQKAKMMLDDIVSRGRGGPPGQFHDNANGGQNGTVQEIMIPAGKAGLVIGKGGETIKQLQERAGVKMILIQDGSQNTNVDKPLRIIGDPYKVQQACEMVMDILRERDQGGFGDRNEYGSRIGGGIDVPVPRHSVGVVIGRSGEMIKKIQNDAGVRIQFKQDDGTGPEKIAHIMGPPDRCEHAARIINDLLQSLRSGPPGPPGGPGMPPGGRGRGRGQGNWGPPGGEMTFSIPTHKCGLVIGRGGENVKAINQQTGAFVEISRQLPPNGDPNFKLFIIRGSPQQIDHAKQLIEEKIEGPLCPVGPGPGGPGPAGPMGPFNPGPFNQGPPGAPPHAGGPPPHQYPPQGWGNTYPQWQPPAPHDPSKAAAAAADPNAAWAAYYSHYYQQPPGPVPGPAPAPAAPPAQGEPPQPPPTGQSDYTKAWEEYYKKIGQQPQQPGAPPQQDYTKAWEEYYKKQAQVATGGGPGAPPGSQPDYSAAWAEYYRQQAAYYGQTPGPGGPQPPPTQQGQQQAQ [KHSRP]”, for which the “solubility change mitosis (log2)” value in series [1] amounted to 0.0471. Further, the melting temperature came out at 55.4 °C in series [2] (cell cycle stage: G1/S) and 55.7 °C in series [2] (cell cycle stage: mitosis). Also, the “solubility in G1/S (log2)” value in series [3] worked out at 0.523. The thermal stability score in series [4] (setting [5]) came to 1.92; in series [4] (cell cycle stage: mitosis), 1.64.

Consider “MSEADGLRQRRPLRPQVVTDDDGQAPEAKDGSSFSGRVFRVTFLMLAVSLTVPLLGAMMLLESPIDPQPLSFKEPPLLLGVLHPNTKLRQAERLFENQLVGPESIAHIGDVMFTGTADGRVVKLENGEIETIARFGSGPCKTRDDEPVCGRPLGIRAGPNGTLFVADAYKGLFEVNPWKREVKLLLSSETPIEGKNMSFVNDLTVTQDGRKIYFTDSSSKWQRRDYLLLVMEGTDDGRLLEYDTVTREVKVLLDQLRFPNGVQLSPAEDFVLVAETTMARIRRVYVSGLMKGGADLFVENMPGFPDNIRPSSSGGYWVGMSTIRPNPGFSMLDFLSERPWIKRMIFKLFSQETVMKFVPRYSLVLELSDSGAFRRSLHDPDGLVATYISEVHEHDGHLYLGSFRSPFLCRLSLQAV [APMAP]”, for which the “solubility change mitosis (log2)” value in series [1] was -0.116. The melting temperature in series [2] (cell cycle stage: G1/S) worked out at 56.2 °C; in series [2] (cell cycle stage: mitosis) it was 57.2 °C. In series [3], the “solubility in G1/S (log2)” value turned out to be 0.164. Besides, the figures for the thermal stability score in series [4] (setting [5]) and in series [4] (cell cycle stage: mitosis) were 0.325 and 0.806, respectively.

For “MSEDLAKQLASYKAQLQQVEAALSGNGENEDLLKLKKDLQEVIELTKDLLSTQPSETLASSDSFASTQPTHSWKVGDKCMAVWSEDGQCYEAEIEEIDEENGTAAITFAGYGNAEVTPLLNLKPVEEGRKAKEDSGNKPMSKKEMIAQQREYKKKKALKKAQRIKELEQEREDQKVKWQQFNNRAYSKNKKGQVKRSIFASPESVTGKVGVGTCGIADKPMTQYQDTSKYNVRHLMPQ [SMNDC1]”, in series [1], the “solubility change mitosis (log2)” value was 0.405. In addition, the melting temperature came to 57.7 °C in series [2] (cell cycle stage: G1/S) and 55.9 °C in series [2] (cell cycle stage: mitosis). Besides, the “solubility in G1/S (log2)” value in series [3] came out at 0.271. The values for the thermal stability score in series [4] (setting [5]) and in series [4] (cell cycle stage: mitosis) were -2.66 and -6.93, respectively.

“MSELEQLRQEAEQLRNQIQDARKACNDATLVQITSNMDSVGRIQMRTRRTLRGHLAKIYAMHWGYDSRLLVSASQDGKLIIWDSYTTNKMHAIPLRSSWVMTCAYAPSGNYVACGGLDNICSIYNLKTREGNVRVSRELPGHTGYLSCCRFLDDSQIVTSSGDTTCALWDIETAQQTTTFTGHSGDVMSLSLSPDMRTFVSGACDASSKLWDIRDGMCRQSFTGHVSDINAVSFFPNGYAFATGSDDATCRLFDLRADQELLLYSHDNIICGITSVAFSKSGRLLLAGYDDFNCNVWDTLKGDRAGVLAGHDNRVSCLGVTDDGMAVATGSWDSFLRIWN [GNB4]”: the “solubility change mitosis (log2)” value in series [1] is -0.13. For the same sequence, the figures for the melting temperature in series [2] (cell cycle stage: G1/S) and in series [2] (cell cycle stage: mitosis) were 55.6 °C and 56.7 °C, respectively. Further, the “solubility in G1/S (log2)” value in series [3] is -0.287. Moreover, the thermal stability score in series [4] (setting [5]) was -1.5; in series [4] (cell cycle stage: mitosis), -0.567.

In the case of “MSERCCSRYSSGASIGCTPTSTQAKMVSKRIAQETFDAAVRENIEEFAMGPEEAVKEAVEQFESQGVDLSNIVKTAPKVSADGSQEPTHDILQMLSDLQESVASSRPQEVSAYLTRFCDQCKQDKACRFLAAQKGAYPIIFTAWKLATAGDQGLLLQSLNALSVLTDGQPDLLDAQGLQLLVATLTQNADEADLTCSGIRCVRHACLKHEQNRQDLVKAGVLPLLTGAITHHGHHTDVVREACWALRVMTFDDDIRVPFGHAHNHAKMIVQENKGLKVLIEATKAFLDNPGILSELCGTLSRLAIRNEFCQEVVDLGGLSILVSLLADCNDHQMRDQSGVQELVKQVLSTLRAIAGNDDVKDAIVRAGGTESIVAAMTQHLTSPQVCEQSCAALCFLALRKPDNSRIIVEGGGAVAALQAMKAHPQKAGVQKQACMLIRNLVAHGQAFSKPILDLGAEALIMQARSAHRDCEDVAKAALRDLGCHVELRELWTGQRGNLAP [ARMC6]”, in series [1], the “solubility change mitosis (log2)” value is -0.0993. In addition, the figures for the melting temperature in series [2] (cell cycle stage: G1/S) and in series [2] (cell cycle stage: mitosis) were 46.8 °C and 47 °C, respectively. Also, in series [3], the “solubility in G1/S (log2)” value was found to be 0.319. The figures for the thermal stability score in series [4] (setting [5]) and in series [4] (cell cycle stage: mitosis) were 0.787 and 2.44, respectively.
